The values below come from a protein production outcome set (Wang et al. 2014).

The data set is described as follows: label from the status in PepcDB records.
Turning to “MTRYGLRARVITLTLAPTLIIGLLLSGFFSFNRYQDLEKQVITTGNSIIEPLAIASESHLLAESREAVRRLISYAHRKNSKLVRSIAVFDEHHELFVTSNFHPNFEALMFPKDKPIPKLGNSEIYENSLILRVPILSEGHYLSELSNENQGTKAIGYIAVEMDLSSLRLQQYQEVFSAFLVLILGLGLASVFASRLMHDVTQPITHMKNVVDRIRRGHLDVRIEGKMHGELDQLKNGINAMAVSLSEYHVEMQHSIDQATSDLRETLEQLEIQNVELDIAKKRAQEAARVKSEFLANMSHELRTPLNGVIGFTRQMLKTQLSNSQTDYLQTIEKSANNLLNIINDILDFSKLEAGKLALENIPFDFRESLEEVINLQATSAHEKGLEITLKVDPKIPPGLVGDPLRIQQILTNLVGNSIKFTERGNIDVSVEMRSQAGDSVELQFMVRDTGIGISERQQAQLFQAFSQADASISRRYGGTGLGLVITQKLVSQMGGEISLTSRLHQGSTFWFTLRLNSTEMPMSDLIEVELLTGKQLLLVEPNMQAASVTQQILSQEGILVTYRSSLPENEEHYDYVLLNLAANQTYDEQSVAAWIEQAKRMAPSVIMGTPSTELALADQIMTEHQIQCLTKPLSRRKLLQSLINEHVEAPQAITAPVETEESERLPLTVLAVDDNPANLKLISALLKERVETVTACSNGQQAVNLATEKKYDLIFMDIQMPLMDGVTACQNIKELELNKDTPVIAVTAHAMAGERDRLLAAGMDDYLTKPIEEHVLQQVLVHWNPNTCTESIGKVAPSYVDEPESEAPATAENTQPDVIIDWQAALKQSANKEDLAKDMLRMLIDFIPEVEEVVDHALEQDDYSREELIHVIHKLHGSSSYCGVPRLKSLCATLEHALRSGASIEEIEPEMFELQDEMIKVTTTAKLYLEQ”, the protein production entry was “failed”. As for “MSEILVLNCGSSSVKFALINPHTSQSLVTGLAENIATKNCKVVFKAEHKIVKYLENGSYKDVFEMLKDFLVENKHLEKIVAIGHRVVHGGQYFSKSVLINADSLEKIKACIALAPLHNPAHIEGIRFCQQIFPELPQVAVFDTAFHQTMPSYIAEYAIPYELTHKHNIRKYGAHGTSHKYVSEQAAKILTQQKANVIVAHLGNGCSITAVVDGKSIDTSMGLTPLDGLVMGTRSGCIDPSIFAYISDNLGWSVTEITNMLNKQSGLLGICGHNDMREVSQLAAKGDSLAKLAIEIFSHRVAKFVASYMIYFNKLDALVFTGGIGENAANIRKNIISKLANLGFMIDHQKNSNSETFINSKNSHNIMVIATNEELMIAQETQNLI”, the protein production result was “not failed”. The result for “MAYVKERIYESMFIIAPNVPEEERENLVERVKKIIEERVKGKIDKVERMGMRKFAYEIKKFNEGDYTVIYFRCDGQNLQELENFYRVTPEIIRWQTFRRFDLEKKERKAQREKAAAEATESSEGGSED” reads “not failed”; that for “MLEIIQKTLTDNAIIGAIFSSIAIIFLGFYIRKRNILTGAASKILTKVVLTVAIPALAFTSFMKDINQKELHEGINILIWGFVIYILLIVLTKFIFARVKGDKQDVFRVLTIFGSTTFFGVPIVKAVYGSVGAMYSSIFNIAYRVFLYSYGYIKMSGVKMDKENLKKNLKEMLLNPVIIATFLGLFIWLFQGMLPQVQIGDKSYAFLRIDQTLPWLYKPLTYLDKLCSPLAWLAIGITLAEVPFKQAVGQKEPWVYSLIKIILVPVINLGLLVVLNKTGILPVSFEGMATTVIMLATPTATVAAAYAISFDKEALLTSNCSLLSTVVAVVAMPFWIVILQIIKNIGLFA”, “failed”; that for “MVDYKTVRCHFGDVELTKWITITDGFTVFSGADYDPELKEIGGKDGSIFIGTKTKHKVIKVPFWVKYNTIEDYDALQLALSSKKPKMLMFSHIPGRYYLAVQVGDLNFKEIKMNGFGEITFIVADAYAHSTSYRRIKDYTQDGNKMTFKIKNNGTAPAFPIFRIKHLGENGYIGITNETGAFAVGSPEEEDGTIVHRNETLFDYSKAIAQALEGAPNVAKLNYMPPTFDSELKRMRLDNILGSGKGGEYVAIGARGTTPGYGEHVGTRTFIINPDSNGEYTLNEHLWWKQIFIATAQDQKGFLKLCVTGENDEFLYGIETYKRKNGFETEYNFFALDDDGVGWRFYKQFEFQADRNYHNPFSMNRSRAVEIFREEDKFRIYFNGAHHHVTVPSLKGKKSRKIHLAMGTCSDSSKYINYNLFEKVNFEKMGVSHYNNIVNKYQPGDEVIINFENDTVSTKDIDSIQDVVLGSKMISIPPGESELVVHLSSWVAALPDISIDFEERYK”, “failed”. The result for “MQFKNTPQRYGVVSAALHWLTALVVYGMFALGLWIVTLSYYDGWYHQAPEIHKSIGILLMMALIVRIIWRLYSPPPVALTSYSRLTRASAAAGHLLLYLLLFAIIISGYLISTADGKPISVFSWFEIPATLTDAGAQADIAGTLHLWFAWSLVIISLSHGVMALKHHFIDKDDTLKRMTGMSSSDYGAQK” reads “failed”.

For “MEKIEDQFASLHIVRRSSEPKEPTYLLGIDTSKTVQADKGGLVAVLCSNGSIRIYDKETLHLLREFGGSPGLLSGVSFANSCDSVYSASTDGTVKCWDARGASEKPVQLFKGYPSCSFISFDVNCKDHVICAGAEKVDEDALLVFWDARFTSQDLSTRDPLGAYSETHSDDITQVRFHPSNPNLVVSGSTDGLVNVFDLSADKEEDALVATCNSVSSVSCIGWCGKDYKQIYCMTHDEGFCWWDLNHLDTDEPITCLNIQDVREITDVKDGHLDYLIGGLYHEKMDRLFVIGGTNTGKIHLLSCTSAGLTHVTSLHGGHAATVRSFCWNVSEDSLLTGGEDAQLLLWKPGAMEKTFTKKDSLKIASSVQQRVRVHSSDSYKKRKQQ”, the protein production entry is “failed”.

In the case of “MSEVTKNSLEKILPQLKCHFTWNLFKEDSVSRDLEDRVCNQIEFLNTEFKATMYNLLAYIKHLDGNNEAALECLRQAEELIQQEHADQAEIRSLVTWGNYAWVYYHLGRLSDAQIYVDKVKQTCKKFSNPYSIEYSELDCEEGWTQLKCGRNERAKVCFEKALEEKPNNPEFSSGLAIAMYHLDNHPEKQFSTDVLKQAIELSPDNQYVKVLLGLKLQKMNKEAEGEQFVEEALEKSPCQTDVLRSAAKFYRRKGDLDKAIELFQRVLESTPNNGYLYHQIGCCYKAKVRQMQNTGESEASGNKEMIEALKQYAMDYSNKALEKGLNPLNAYSDLAEFLETECYQTPFNKEVPDAEKQQSHQRYCNLQKYNGKSEDTAVQHGLEGLSISKKSTDKEEIKDQPQNVSENLLPQNAPNYWYLQGLIHKQNGDLLQAAKCYEKELGRLLRDAPSGIGSIFLSASELEDGSEEMGQGAVSSSPRELLSNSEQLN”, the protein production result was “failed”. The result for “MIFALHIMLRFVPNIVPLSIINKKTMTRIGLLSDTHAFWDDKYLKYFENCDEIWHAGDIGSVEVARKLSAFRPFRAVYGNIDGQDIRRLYPQTNRFTVDGAEVLIKHIGGYPGNYDPSIRGSLLVKPPQLFISGHSHILKVKYDKTLDMLHINPGAAGISGFHKVRTLVRFCIDNGEFKDLEVIELADKL” reads “failed”; that for “MGFIQWCLAHLNYWTIMFLMAIESSFIPFPSEIIVPPAAWMAATGQNGLNVFLVILFATIGAGIGAAVNYILSLLLGRPIVYAFANSKLGHLCLINEEKVRYAERYFDKNGAVSTLVGRLIPAVRQLISIPAGLARMKFLPFISYTMLGAGIWNCILAAIGYNLAKVPGIETQEQLLEKVNKYSHEIGFSIMGVVVVVLLIMFYKKKRRSARKGN”, “failed”. The same measure for “MQDFGDNSGRAPAAGRSWRNTPSSFGVVAIAFHWTIAVLFVAQLALGYLMSRDSIDPVLQFNFFQYHKSIGFLVLALAVPRCLWSVFSRKPRAVDGEGPVSRFAARVAHSALLFLTLAVPLAGWAVASTSPLQIPSYVFDLVVVPGLPMTISDQAEAFWSDVHATLAYLAAVIVLLHVIAALWHHFIRRDPTLRRMLPLPDTTDNSRREISSGQ”: “failed”; for “LSIPEDYQARLQPNRVEGSYPLVRMEFTGATVDAPLMSQISRKYNIDVSILSSDLDYAGGVKFGMMVAELFGNEQDDSAAIEYLREHNVKVEVLGYVL”: “not failed”. The same measure for “MSENLAITIATIVVKLFAIIDPFSVLPFLLAIYEEANRDSQEKVSWNYMINKITIAILILLTLFSLIGRPLLDFLGLSAQALQIAGGVLLVYLGIDTMGGFQQLRFIRSLREAIVTPIATPLLVGPGTMTALISLSVDYNPLELVISSGIVTLLVYLSLLSGPYLVKILGQTGTVAAGRFTAIIIAAFGVQLILSGISQLNFK”: “failed”; for “MGGIYRLSLKSTEATAERLSCDTRCNYEDRDLAYSPDGRWLAIARRFSNISEDIFIRDLASAHEKRLTQGLEDIRGLSWTPDSQALVFATEDSGSSNGFTLDINTAQIRSLDVEGMSYPSSVSAEGELVYHQYHRQFQMAYFSLGDKVPGSLFPLLYSGVSHRNPDYSPEAKRIVFVSSETG”: “failed”. Regarding “MTGLINAIPATNKDEYKNVGVYIEHRGDELKRPSIEMIGIGKQLARKVNEKLICVVIGDKVDGIAKEVGEYGCDIVLAAESPELAEYRTMPYAEIIGGYIQEYKPNIFLLAATRNGRDLASRIAVKSRTGITADCTVLDIDENRTLLANRPTYGESTLAEILCRNHRPQMATARPGIFPPAEKEKDHKYEVIKKKVDVDKKLLGKQILKFI”, the protein production entry is listed as “not failed”.

Turning to “MALLIITTILWAFSFSLIGEYLAGSVDSYFSVLMRVGLAALVFLPFLRTRGQSPRTIVLYMLVGAMQLGIMYLLAFRAYLYLTVSEFLLFTVFTPLYITLIYDLLSGRKLRWGYLLSAALAVLGAAIIRYDKVSDHFWTGLLLVQLSNLCFAIGMVGYKRLMEVRPMPQHNAFAWFYVGAFIVAVAAWFMLGNAQKLPTTTLQWSVLVWLGVVASGLGYFMWNYGATQVDAGTLGIMNNVHVPAGLLVNLAIWQEQPHWPSFISGALVILASLWVHRRWVAPHSGQTADDRRRGSAQSE”, the protein production result is “failed”. The same measure for “MYCWNPELYAFSSSAQKSWGIELLTKFPLKGNERVLDVGCGDGKLSAEIAKRLPEGSVLGIDLSEAMVCFAKNHYPKEQFPNLSFMLMDAGNVPFESEFDVIFSNAALHWIKEPKAIETVLKGFLKSLRPEGKLLAQFGGRGNAAEVLLVLNSMLEDEKWSPYFGNFVFPYGFYGPEEYGKWLKNAGFSVRRAELYSKDMTLKGKEGLSGWFASTWHPFTQRVPENLKEEFIDELAVNFIKLHPLDNEGYVHIRMVRLEIEADIEK”: “failed”. For the sequence “MYEIKGHHHISMVTKNANENNHFYKNVLGLRRVKMTVNQDDPSMYHLFYGDKTGSPGTELSFFEIPLVGRTYRGTNAITRIGLLVPSEDSLHYWKERFEKFDVKHSEMTTYANRPALQFEDAEGLRLVLLVSNGEKVEHWETWEKSEVPAKHQIQGMGSVELTVRRLDKMASTLTEIFGYTEVSRNDQEAIFQSIKGEAFGEIVVKYLDGPTEKPGRGSIHHLAIRVKNDAELAYWEEQVKQRGFHSSGIIDRFYFKSLYFRESNGILFEIATDGPGFTVDGDVEHLGEKLDLPPFLEDQRAEIEANLAPIEEK”, the protein production result was “not failed”. In the case of “MANIKIRQETPTAFYIKVHDTDNVAIIVNDNGLKAGTRFPDGLELIEHIPQGHKVALLDIPANGEIIRYGEVIGYAVRAIPRGSWIDESMVVLPEA”, the protein production result is recorded as “not failed”.

Take “MSLAKISKIEAQKRKGRYNIYLDGKYAFPVAESVLIQFRLMKGTELDEKQIAAIATADQQAKAYSRMLDYLSYQMRTESDIVKKLKEIDTPEEFVEPILKKLRGQQLIDDHAYAASYVRTMINTDLKGPGIIRQHLRQKGIGESDIDDALTQFTPEVQAELAKKLALKLFRRYRNQPERRREQKVQQGLTTKGFSSSVYEMIKDEVVPQPDLEEGHHHHHH”: the protein production entry is recorded as “not failed”.
